The source of these data is patent US20250049939A1 (TUBULIS, published 2025).

Assay [1] has as its target T1, recombinant human FLT3 protein (human, UniProt P36888 27-541).
T1 construct: also called recombinant FLT3 protein; human recombinant FLT3 protein (10445-H08H, Sino Biological)
T1 sequence: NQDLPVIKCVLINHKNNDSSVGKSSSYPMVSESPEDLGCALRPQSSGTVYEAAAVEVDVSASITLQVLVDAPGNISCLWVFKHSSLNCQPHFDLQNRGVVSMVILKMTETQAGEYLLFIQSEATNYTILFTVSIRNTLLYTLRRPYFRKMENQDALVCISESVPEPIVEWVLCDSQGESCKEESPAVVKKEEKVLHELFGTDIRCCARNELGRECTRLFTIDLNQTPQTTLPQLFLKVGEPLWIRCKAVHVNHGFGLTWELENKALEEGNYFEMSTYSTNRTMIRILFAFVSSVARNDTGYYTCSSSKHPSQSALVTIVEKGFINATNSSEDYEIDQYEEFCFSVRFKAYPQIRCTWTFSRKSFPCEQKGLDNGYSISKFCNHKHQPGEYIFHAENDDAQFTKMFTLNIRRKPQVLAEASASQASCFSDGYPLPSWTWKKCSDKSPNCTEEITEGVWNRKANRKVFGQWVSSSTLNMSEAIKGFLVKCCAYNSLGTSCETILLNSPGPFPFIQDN
Briefly: ELISA with recombinant human FLT3 coated to the plate (results of FIG. 13 summarized). On the procedure: Maxisorp plates were coated with human recombinant FLT3 protein (10445-H08H, Sino Biological). […] For detection, Attophos Fluorescent Substrate System (S1000, Promega) was applied. The fluorescence was read with excitation of 405 nm and emission at 500-550 nm. The calculation of the dissociation constant KD was performed using GraphPad Prism version 9.4.0.
The 12 clones were subsequently analysed in ELISA assays (FIG. 13). Therefore, recombinant human FLT3 was coated on plates and incubated with the antibody candidates. […] Mean±s.d. of n=3 biological replicates.
(In general: In an ELISA, binding on a coated surface is turned into a signal by an enzyme label.)

In assay [2] the target is T2, human wildtype FLT3 expressed on Ba/F3 cells (human, UniProt P36888 27-993).
T2 construct: also called hFLT3 wt; Ba/F3-FLT3
T2 sequence: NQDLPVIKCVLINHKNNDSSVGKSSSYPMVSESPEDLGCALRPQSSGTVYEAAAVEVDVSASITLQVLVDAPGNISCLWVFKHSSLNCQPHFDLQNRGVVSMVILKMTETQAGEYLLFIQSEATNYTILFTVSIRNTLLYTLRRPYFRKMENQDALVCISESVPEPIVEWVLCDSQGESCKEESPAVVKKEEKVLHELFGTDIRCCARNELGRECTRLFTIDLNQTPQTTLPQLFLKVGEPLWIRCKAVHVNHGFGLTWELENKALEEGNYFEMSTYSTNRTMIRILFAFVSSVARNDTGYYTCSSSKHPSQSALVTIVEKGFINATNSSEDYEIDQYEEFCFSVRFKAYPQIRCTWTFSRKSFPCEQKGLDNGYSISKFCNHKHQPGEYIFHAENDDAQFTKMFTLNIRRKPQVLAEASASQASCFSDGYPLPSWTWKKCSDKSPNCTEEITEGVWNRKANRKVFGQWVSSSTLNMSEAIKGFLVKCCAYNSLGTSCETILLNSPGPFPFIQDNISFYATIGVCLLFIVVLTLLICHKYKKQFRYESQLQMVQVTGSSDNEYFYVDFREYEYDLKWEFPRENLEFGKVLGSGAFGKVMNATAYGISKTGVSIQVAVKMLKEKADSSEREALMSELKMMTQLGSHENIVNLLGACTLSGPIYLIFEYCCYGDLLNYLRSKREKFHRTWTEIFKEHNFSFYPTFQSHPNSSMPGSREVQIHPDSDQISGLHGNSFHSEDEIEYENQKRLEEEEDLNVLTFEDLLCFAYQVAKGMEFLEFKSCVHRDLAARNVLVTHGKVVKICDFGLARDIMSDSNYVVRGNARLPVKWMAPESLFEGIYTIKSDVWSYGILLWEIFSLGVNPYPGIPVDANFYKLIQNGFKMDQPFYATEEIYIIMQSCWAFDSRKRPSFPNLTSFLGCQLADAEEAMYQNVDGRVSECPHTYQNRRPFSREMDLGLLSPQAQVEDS
Briefly: flow cytometry, cell surface binding to Ba/F3 cells expressing human FLT3 (results of FIG. 14 summarized). (In general: In flow cytometry, cells or beads pass a laser one at a time.)

The next assay addresses T3, VEGFR-2 on Ba/F3 cells (UniProt P35968 20-1356, limits assumed).
T3 construct: whole, on cells
Briefly: flow cytometry, cell surface binding to Ba/F3 pMIY cells expressing VEGFR, MFI ratio normalized to IgG1, mean ± s.d. of n=3.

For the next assay, the target named is T4, CSF1R on Ba/F3 cells (UniProt P07333 20-972, limits assumed).
T4 construct: whole, on cells
Nature of the assay: flow cytometry, cell surface binding to Ba/F3 pMIY cells expressing CSF-1R, MFI ratio normalized to IgG1, mean ± s.d. of n=3.

T4 sequence (P07333 20-972 limits assumed): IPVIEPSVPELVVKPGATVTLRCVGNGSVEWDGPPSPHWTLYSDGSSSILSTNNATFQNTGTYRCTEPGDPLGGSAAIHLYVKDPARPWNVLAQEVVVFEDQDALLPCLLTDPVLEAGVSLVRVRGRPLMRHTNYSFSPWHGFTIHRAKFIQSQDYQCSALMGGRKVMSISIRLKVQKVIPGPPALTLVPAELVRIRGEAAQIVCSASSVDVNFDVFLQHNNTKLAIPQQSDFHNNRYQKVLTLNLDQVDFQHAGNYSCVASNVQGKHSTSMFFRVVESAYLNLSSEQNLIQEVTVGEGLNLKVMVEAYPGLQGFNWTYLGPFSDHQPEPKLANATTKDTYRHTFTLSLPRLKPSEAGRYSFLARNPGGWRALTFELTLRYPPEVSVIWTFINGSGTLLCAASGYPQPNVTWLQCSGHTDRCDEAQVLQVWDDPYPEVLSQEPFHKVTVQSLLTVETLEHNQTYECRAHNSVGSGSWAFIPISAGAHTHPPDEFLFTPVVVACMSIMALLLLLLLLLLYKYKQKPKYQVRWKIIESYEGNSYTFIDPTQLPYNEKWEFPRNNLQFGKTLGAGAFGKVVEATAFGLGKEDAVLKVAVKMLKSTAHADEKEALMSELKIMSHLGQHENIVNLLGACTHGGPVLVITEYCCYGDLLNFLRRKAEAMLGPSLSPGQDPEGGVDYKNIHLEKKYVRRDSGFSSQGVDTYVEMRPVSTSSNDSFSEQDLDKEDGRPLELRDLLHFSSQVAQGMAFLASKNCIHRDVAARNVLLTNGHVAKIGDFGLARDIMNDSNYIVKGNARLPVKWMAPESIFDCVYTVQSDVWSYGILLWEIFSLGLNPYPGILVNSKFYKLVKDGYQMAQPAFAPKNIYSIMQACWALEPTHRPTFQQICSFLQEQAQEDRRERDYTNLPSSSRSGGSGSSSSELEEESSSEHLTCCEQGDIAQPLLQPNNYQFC
T3 sequence (P35968 20-1356 limits assumed): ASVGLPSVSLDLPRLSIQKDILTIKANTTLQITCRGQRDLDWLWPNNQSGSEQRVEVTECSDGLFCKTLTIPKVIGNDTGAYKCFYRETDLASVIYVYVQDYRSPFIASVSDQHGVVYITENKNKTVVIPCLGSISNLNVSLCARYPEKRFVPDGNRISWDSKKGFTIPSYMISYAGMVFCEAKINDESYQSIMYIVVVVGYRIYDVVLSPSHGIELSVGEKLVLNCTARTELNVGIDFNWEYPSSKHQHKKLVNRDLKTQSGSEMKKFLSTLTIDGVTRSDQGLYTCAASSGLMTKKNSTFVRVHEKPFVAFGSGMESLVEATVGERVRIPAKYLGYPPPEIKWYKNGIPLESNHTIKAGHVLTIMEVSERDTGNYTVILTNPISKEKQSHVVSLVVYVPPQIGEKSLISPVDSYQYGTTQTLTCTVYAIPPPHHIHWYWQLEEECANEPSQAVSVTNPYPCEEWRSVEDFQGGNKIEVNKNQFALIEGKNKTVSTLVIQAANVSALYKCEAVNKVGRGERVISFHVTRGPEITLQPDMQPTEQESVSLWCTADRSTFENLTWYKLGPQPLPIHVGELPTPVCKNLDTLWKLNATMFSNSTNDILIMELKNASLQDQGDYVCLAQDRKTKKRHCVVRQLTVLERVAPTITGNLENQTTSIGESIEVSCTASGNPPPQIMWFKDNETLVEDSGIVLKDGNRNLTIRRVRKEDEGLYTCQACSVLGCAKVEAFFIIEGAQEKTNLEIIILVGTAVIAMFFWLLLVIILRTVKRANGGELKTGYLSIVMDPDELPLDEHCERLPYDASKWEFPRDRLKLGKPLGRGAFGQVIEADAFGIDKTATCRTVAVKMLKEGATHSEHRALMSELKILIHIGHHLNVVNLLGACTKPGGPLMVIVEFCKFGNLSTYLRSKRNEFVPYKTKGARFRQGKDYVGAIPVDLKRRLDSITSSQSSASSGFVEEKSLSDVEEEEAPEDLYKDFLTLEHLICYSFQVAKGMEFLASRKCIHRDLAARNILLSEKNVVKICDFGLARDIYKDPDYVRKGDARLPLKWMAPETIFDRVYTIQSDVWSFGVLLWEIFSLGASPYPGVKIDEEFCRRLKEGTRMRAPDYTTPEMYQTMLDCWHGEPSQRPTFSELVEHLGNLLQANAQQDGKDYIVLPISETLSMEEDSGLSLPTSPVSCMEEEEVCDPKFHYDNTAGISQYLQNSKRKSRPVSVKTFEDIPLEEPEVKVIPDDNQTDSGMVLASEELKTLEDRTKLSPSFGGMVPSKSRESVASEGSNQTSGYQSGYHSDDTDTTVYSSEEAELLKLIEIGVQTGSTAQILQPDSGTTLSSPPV

B1: Humanized clone 3 of 20D9 (VH3 + VK1) (antibody, human IgG1, kappa)
heavy: not shown
light: DIQMTQSPSVLSASVGDRVTINCRASQNINKELNWYQQKLGEAPKLLIYNTNNLQSGVPSRFSGSGSGTDYTLTISSLQPEDVATYFCFQHKSWPLTFGSGTKLEIKRTVAAPSVFIFPPSDEQLKSGTASVVCLLNNFYPREAKVQWKVDNALQSGNSQESVTEQDSKDSTYSLSSTLTLSKADYEKHKVYACEVTHQGLSSPVTKSFNRGEC
notes: also called candidate #3; #3 mab
As a reminder, the Kd is the constant that tells how readily two partners part at equilibrium. With B1, the Kd in assay [1] came out at 0.0113 µg/mL. For the same molecule, the “Binding to human FLT3 (MFI ratio to IgG1 control)” value in assay [2] came to 95.3. The binding result with VEGFR-2 on Ba/F3 cells and in the assay with CSF1R on Ba/F3 cells was “no binding” in each case.
